Reference: the RNAGym collection of RNA variant scans (doi:10.7554/elife.80360)

B1: HDV Ribozyme (parent)
chain: GGCCGGCAUGGUCCCAGCCUCCUCGCUGGCGCCGGCUGGGCAACAUUCCGAGGGGACCGUCCCCUCGGUAAUGGCGAAUGGGACCCA

Variants of: B1
Assay: self-cleavage, relative activity (ratio to wild type); higher = more cleavage; co-transcriptional

Row | Variant | self-cleavage
1 | G31U U69A | 0.511
2 | G31A C61G | 0.401
3 | G29C U65A | 0.095
4 | G29C U65G | 0.123
5 | C30U G35A | 0.136
6 | G31C C49A | 0.415
7 | G31U C58A | 0.35
8 | G29C G74C | 0.032
9 | G31A C32U | 0.315
10 | G31A A45G | 0.422
11 | G31U G76U | 0.585
12 | G29U U47G | 0
13 | C30U G81A | 0.155
14 | G31U A70G | 0.48
15 | C30A C84G | 0
16 | C30G U60A | 0.154
17 | C30A C41U | 0.328
18 | G29U G68A | 0.0886
19 | G29U G68U | 0.135
20 | G29C G81C | 0.18
21 | G31U A43G | 0.0475
22 | G31U G40A | 0.359
23 | G31A C57A | 0.708
24 | G31A C57G | 0.529

Row | Variant | self-cleavage
25 | C30G A45U | 0.107
26 | C30U G80A | 0.227
27 | C30U G80C | 0.208
28 | C30U G80U | 0.116
29 | C30G G54C | 0.095
30 | C30G G54U | 0.148
31 | G29C U69C | 0
32 | G29C U69G | 0.0504
33 | C30A A77C | 0.0852
34 | G29U G53U | 0.0213
35 | G29U C57U | 0.0911
36 | C30A C58A | 0.623
37 | C30A C58U | 0.318
38 | G29C G67A | 0.0739
39 | G29C G67U | 0.0773
40 | G29U C85G | 0
41 | G29U C85U | 0.086
42 | C30G U79G | 0.128
43 | C30A C66G | 0.675
44 | G29U G74A | 0.0978
45 | G29U G74U | 0.0963
46 | G31A A83G | 0.228
47 | G31A A83C | 0.0811
48 | G31A A83U | 0.178

Row | Variant | self-cleavage
49 | C30U U60G | 0.443
50 | G31U G59C | 0.57
51 | G31U G35A | 0.17
52 | G29U G54C | 0.0282
53 | G29U G54A | 0.189
54 | C30U A77U | 0.215
55 | C30U A77G | 0.489
56 | C30U C61G | 0.369
57 | C30U C61A | 0.718
58 | C30U U79C | 0.148
59 | G31A C48U | 0.393
60 | G31A C48G | 0.456
61 | C30A C49A | 0.405
62 | G31U A71G | 0.271
63 | G31U A71C | 0.0369
64 | G31A A42U | 0.107
65 | G31A A42G | 0.116
66 | G31A A42C | 0.102
67 | G31C A77U | 0.0489
68 | C30U C75G | 0.0554
69 | G29U C30A | 0.155
70 | G29U C30G | 0.0923
71 | C30G C48A | 0.0369
72 | G31C C48A | 0.449

Row | Variant | self-cleavage
73 | G29C U72C | 0
74 | G31U U79C | 0.107
75 | C30G G80C | 0.0462
76 | G31A C64G | 0.408
77 | G31A C64U | 0.409
78 | G31C C62G | 0.166
79 | G31C C62A | 0.181
80 | C30G G74C | 0.108
81 | C30G G74U | 0.128
82 | C30A C61U | 0.601
83 | C30A C61G | 0.583
84 | C30A A87U | 0.537
85 | C30A A87G | 0.614
86 | G31U A77C | 0.0489
87 | C30G A42C | 0.151
88 | G31A G76C | 0.469
89 | C30G G53U | 0.103
90 | C30G G53C | 0.237
91 | G31A U46A | 0.108
92 | C30A U37C | 0.199
93 | G31C G80C | 0.0615
94 | C30A C86U | 0.68
95 | C30G C33U | 0
96 | G29U U65A | 0.175

Row | Variant | self-cleavage
97 | C30G G38U | 0.114
98 | C30U C44A | 0.117
99 | C30U C44U | 0.289
100 | C30U C44G | 0.135
101 | G31U C36U | 0.0702
102 | C30U C33A | 0.0268
103 | G31C G52A | 0.234
104 | G31C G52U | 0.391
105 | G31A G74U | 0.134
106 | G31U C75G | 0.148
107 | G31U C75U | 0.0665
108 | G31U G67U | 0.297
109 | C30U A70G | 0.8
110 | G31A G68A | 0.481
111 | G31A G68U | 0.463
112 | C30A G35U | 0.166
113 | C30A G35C | 0.0678
114 | C30G A70U | 0.0468
115 | G29C U37C | 0.0898
116 | G29C U37A | 0.201
117 | G29C U37G | 0.128
118 | C30G G50C | 0.157
119 | G29U C61G | 0.203
120 | G31C A70G | 0.285

Row | Variant | self-cleavage
121 | G29U A43G | 0.131
122 | C30U G34A | 0.0875
123 | G31C G76U | 0.463
124 | G31A G82U | 0.0715
125 | G29U C41U | 0.0432
126 | G29U C41G | 0.0302
127 | G31U G81U | 0.23
128 | C30G G82A | 0.0941
129 | G31A A56C | 0.445
130 | C32A C36A | 0
131 | G31A G39C | 0.182
132 | G29U A87G | 0.0585
133 | G29U A87C | 0.0349
134 | C30A G38U | 0.107
135 | C30A G55U | 0.458
136 | G31A C36U | 0.241
137 | G29U G50U | 0.12
138 | G29U A78G | 0.0378
139 | G29U A78U | 0.0287
140 | G29U U60G | 0.175
141 | C30A U60A | 0.692
142 | C30U C62A | 0.562
143 | C30A G53A | 0.389
144 | C30G G76A | 0.0554

Row | Variant | self-cleavage
145 | C30G G76C | 0.117
146 | C30G C32U | 0.113
147 | C30G C32G | 0.0627
148 | C30A C44U | 0.132
149 | G29C U47A | 0.214
150 | G29C U47C | 0.0554
151 | G29C U47G | 0
152 | G31U G34A | 0.0804
153 | C30G C66G | 0.0326
154 | G29C U79C | 0.138
155 | C30U G38A | 0.0773
156 | G31C C44A | 0
157 | G29C G76A | 0.0545
158 | C30U G68U | 0.594
159 | G31A A77U | 0.0906
160 | G31C U69A | 0.299
161 | C30A G40A | 0.462
162 | C30A G59U | 0.637
163 | G29U A71U | 0.0831
164 | C30U A71G | 0.633
165 | C30A G68C | 0.308
166 | G31C G68A | 0.372
167 | C30A U46C | 0.237
